# Assay results taken from patent KR20130126543A (dated 2013).
# T1: IL-6R-Fc 항원 (human, UniProt P08887 20-365, limits assumed)
# T1 construct: domain: IL-6R full domain; Made in-house as IL-6R-Fc; also called IL-6R full; IL-6R full domain인 단백질; not shown: Fc part (vector pYK 604)
# T1 sequence (looked up): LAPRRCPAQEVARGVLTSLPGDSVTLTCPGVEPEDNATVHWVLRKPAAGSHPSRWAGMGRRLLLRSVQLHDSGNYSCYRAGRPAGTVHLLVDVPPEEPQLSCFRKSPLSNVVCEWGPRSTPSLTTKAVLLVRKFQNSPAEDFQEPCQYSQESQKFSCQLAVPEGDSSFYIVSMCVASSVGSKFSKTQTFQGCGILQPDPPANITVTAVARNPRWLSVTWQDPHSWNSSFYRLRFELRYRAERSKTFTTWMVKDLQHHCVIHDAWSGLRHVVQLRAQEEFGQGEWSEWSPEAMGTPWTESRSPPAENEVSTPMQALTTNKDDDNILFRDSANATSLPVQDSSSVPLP
# B1: 항 IL-6R 단클론 항체 D2 (antibody, V domains shown)
# VH: QVQLVESGAEVKKPGSSVKVSCKGSGDTFPNYAINWVRQAPGQGPEWMGRIIPMLGTSDYAEKFQGRVTITADKSTNTAYMGLNSLRSEDTAVYYCVKGPRYYGTDSYYLEKWGQGTMVTVSS
# VL: SQLVLTQPPSVSGAPGQTVTISCTGPTIGAGYDVHWYQQLPGAAPKLLIYGNLNRPSGVPDRFSGSKSGTSASLAITDLQAEDEADYYCHTYDSSLSGSWVFGGGTKLTVL
# B2: 항 IL-6R 단클론 항체 B10 (antibody, V domains shown)
# VH: QVQLVESGGGLVQPGGSLRLSCAASGFIFDDYAMFWVRQVPGKGLEWVAGINWNGNGIGYGDSVRGRFIISRDNARNSLDLQMNSLRAEDTAVYYCARPSLYGGNSEFDLWGQGTLVTVSS
# VL: B1 VL
# B3: 항 IL-6R 단클론 항체 A7 (antibody, V domains shown)
# VH: QMQLVESGGGLVQPGTSLRLSCAASGFKFEDYAMHWVRQAPGKGLEWVSGVSWNSGTIAYVDSVKGRFTISRDNAKNSLYLQMNSLRAEDTAVYYCARDFTYFYESSGYYAFDLWGQGTMVTVSS
# VL: SQLVLTQPPSVSGAPGQRVTISCTGTNSNIGAGYDVHWYQQVPGTTPKLLIYGNTNRPSGVPDRFSGSKSGTSASLAITGLQAEDGGDYYCQSFDSSLTGSVFGTGTKVTVL
# B4: 항 IL-6R 단클론 항체 F2 (antibody, V domains shown)
# VH: QVQLVESGAEVKKPGASVKVSCKASGYTFTNYYMHWVRQAPGQGLEWMGIINPSGGNTGYAQKFQGRVTMTRDMSTSTAYMELSSLRSEDTAVYYCARGLPWGENGLDVWGQGTTVTVSS
# VL: SQLVLTQPSSVSGAPGQTVTISCTGSSSNIGAGYDVHWYQQLPGTAPKVLIYGDSDRPSGVPDRFSGSKSATSASLAITGLQAEDEADYYCQSYDSSLSAYVFGTGTKVTVL
# B5: 모노 파아지 클론 B10 (scFv, V domains shown)
# VH: B2 VH
# VL: B1 VL
# notes: also called 6B10
# B6: 모노 파아지 클론 D2 (scFv, V domains shown)
# VH: B1 VH
# VL: B1 VL
# notes: also called D02
# B7: 모노 파아지 클론 A7 (scFv, V domains shown)
# VH: B3 VH
# VL: B3 VL
# notes: also called A07
# B8: 모노 파아지 클론 F2 (scFv, V domains shown)
# VH: B4 VH
# VL: B4 VL
# notes: also called F02
# B9: B10/TNFR2 (bispecific antibody)
# heavy: not shown
# light: DVHSQLVLTQPPSVSGAPGQTVTISCTGPTIGAGYDVHWYQQLPGAAPKLLIYGNLNRPSGVPDRFSGSKSGTSASLAITDLQAEDEADYYCHTYDSSLSGSWVFGGGTKLTVL
# notes: also called Anti-IL-6R/TNFR2
# B10: A7/TNFR2 (bispecific antibody)
# heavy: not shown
# light: DVHSQLVLTQPPSVSGAPGQRVTISCTGTNSNIGAGYDVHWYQQVPGTTPKLLIYGNTNRPSGVPDRFSGSKSGTSASLAITGLQAEDGGDYYCQSFDSSLTGSVFGTGTKVTVL
# notes: also called Anti-IL-6R/TNFR2; Dual
# Target: T1, IL-6R-Fc 항원
# Assay: ELISA; IL-6R coated 100 ng/well; IgG at 0.04883 nM; anti-Fab-HRP
row,OD 490 nm,Binder
1,0.451 OD490,B1
2,0.451 OD490,B2
3,0.498 OD490,B3
4,0.584 OD490,B4

# Target: T1, IL-6R-Fc 항원
# Assay: ELISA; IL-6R coated 100 ng/well; IgG at 12.5 nM; anti-Fab-HRP
row,OD 490 nm,Binder
1,1.47 OD490,B1
2,1.39 OD490,B2
3,2.58 OD490,B3
4,2.92 OD490,B4

# Target: T1, IL-6R-Fc 항원
# Assay: ELISA titration on coated IL-6R; fit R2 0.98
row,Kd,Binder
1,0.35 nM,B4

# Target: T1, IL-6R-Fc 항원
# Assay: ELISA; IL-6R coated 100 ng/well; IgG at 25 nM; anti-Fab-HRP
row,OD 490 nm,Binder
1,1.94 OD490,B1
2,1.78 OD490,B2
3,2.84 OD490,B3
4,2.89 OD490,B4

# Target: T1, IL-6R-Fc 항원
# Assay: ELISA titration on coated IL-6R; fit R2 0.75
row,Kd,Binder
1,4.3 nM,B2

# Target: T1, IL-6R-Fc 항원
# Assay: ELISA; IL-6R coated 100 ng/well; IgG at 0.02441 nM; anti-Fab-HRP
row,OD 490 nm,Binder
1,0.449 OD490,B1
2,0.468 OD490,B2
3,0.514 OD490,B3
4,0.535 OD490,B4

# Target: T1, IL-6R-Fc 항원
# Assay: ELISA titration on coated IL-6R; fit R2 0.8
row,Kd,Binder
1,7.5 nM,B1

# Target: T1, IL-6R-Fc 항원
# Assay: ELISA; IL-6R coated 100 ng/well; IgG at 1.5625 nM; anti-Fab-HRP
row,OD 490 nm,Binder
1,0.584 OD490,B1
2,0.607 OD490,B2
3,1.17 OD490,B3
4,2.43 OD490,B4

# Target: T1, IL-6R-Fc 항원
# Assay: ELISA; IL-6R coated 100 ng/well; IgG at 3.125 nM; anti-Fab-HRP
row,OD 490 nm,Binder
1,0.719 OD490,B1
2,0.761 OD490,B2
3,1.64 OD490,B3
4,2.72 OD490,B4

# Target: T1, IL-6R-Fc 항원
# Assay: ELISA; IL-6R coated 100 ng/well; IgG at 0.09766 nM; anti-Fab-HRP
row,OD 490 nm,Binder
1,0.45 OD490,B1
2,0.462 OD490,B2
3,0.497 OD490,B3
4,0.743 OD490,B4

# Target: T1, IL-6R-Fc 항원
# Assay: ELISA titration on coated IL-6R (repeats the 3rd table)
row,Kd,Binder
1,7.5 nM,B1
2,4.3 nM,B2
3,2.3 nM,B3
4,0.35 nM,B4

# Target: T2, a-Myc
# T2 construct: Coated at 100 ng/well in the phage ELISAs
# Assay: mono phage ELISA; a-Myc coated 100 ng/well; anti-M13-HRP
row,OD 490 nm (a-myc),Binder
1,0.113 OD490,B5
2,0.303 OD490,B6
3,0.0797 OD490,B7
4,0.287 OD490,B8

# Target: T1, IL-6R-Fc 항원
# Assay: assay on IL-6R not described for the bispecific protein
row,Kd,Binder
1,4.3 nM,B9
2,2.3 nM,B10

# Target: T1, IL-6R-Fc 항원
# Assay: ELISA; IL-6R coated 100 ng/well; IgG at 50 nM; anti-Fab-HRP
row,OD 490 nm,Binder
1,2.38 OD490,B1
2,2.09 OD490,B2
3,3.1 OD490,B3
4,2.99 OD490,B4

# Target: T1, IL-6R-Fc 항원
# Assay: ELISA; IL-6R coated 100 ng/well; IgG at 6.25 nM; anti-Fab-HRP
row,OD 490 nm,Binder
1,0.981 OD490,B1
2,1.04 OD490,B2
3,2.13 OD490,B3
4,2.71 OD490,B4

# Target: T1, IL-6R-Fc 항원
# Assay: ELISA titration on coated IL-6R; fit R2 0.93
row,Kd,Binder
1,2.3 nM,B3

# Target: T1, IL-6R-Fc 항원
# Assay: ELISA; IL-6R coated 100 ng/well; IgG at 0.19531 nM; anti-Fab-HRP
row,OD 490 nm,Binder
1,0.469 OD490,B1
2,0.429 OD490,B2
3,0.546 OD490,B3
4,1.01 OD490,B4

# Target: T1, IL-6R-Fc 항원
# Assay: ELISA; IL-6R coated 100 ng/well; IgG at 0.78125 nM; anti-Fab-HRP
row,OD 490 nm,Binder
1,0.479 OD490,B1
2,0.5 OD490,B2
3,0.782 OD490,B3
4,1.9 OD490,B4

# Target: T3, TNF-α (UniProt P01375 77-233)
# T3 construct: Coated at 100 ng/well; also called TNF-a; TNF-α 리간드
# T3 sequence (P01375 77-233 limits assumed): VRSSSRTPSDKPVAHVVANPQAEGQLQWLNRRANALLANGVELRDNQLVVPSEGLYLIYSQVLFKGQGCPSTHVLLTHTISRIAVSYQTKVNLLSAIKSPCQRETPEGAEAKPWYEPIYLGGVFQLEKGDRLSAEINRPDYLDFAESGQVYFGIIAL
# Assay: ELISA; TNF-α coated 100 ng/well; protein from 100 nM in 1/4 steps; anti-Human Fc-HRP
row,Kd,Binder
1,0.72 nM,B9

# Target: T1, IL-6R-Fc 항원
# Assay: ELISA; IL-6R coated 100 ng/well; IgG at 0.39063 nM; anti-Fab-HRP
row,OD 490 nm,Binder
1,0.473 OD490,B1
2,0.476 OD490,B2
3,0.618 OD490,B3
4,1.41 OD490,B4
